In patent publication US20090246142A1, “Triggered Self-Assembly of Nanoparticles In Vivo” (MASSACHUSETTS INSTITUTE OF TECHNOLOGY, priority 2006, published 2009):
Square brackets hold non-standard residues; d marks the D form. pY = N[C@@H](Cc1ccc(OP(=O)(O)O)cc1)C(=O)O; Ahx = NCCCCCC(=O)O

How the values were obtained:
[1] = system: Abl kinase; experiment: Kinase-directed TSAC assembly, MRI T2 mapping; type: biochemical; conditions: free phosphopeptide added to Abl kinase-assembled TSACs
Description: Kinase reaction was initiated by adding indicated amount of Abl kinase (New England Biolabs). TSAC assemblies were characterized by DLS over time or MRI.
All TSAC solutions were prepared in final concentration of 10 μg Fe/ml (12 nM TSAC concentration) in 70 μl of kinase reaction buffer. TSAC mixtures were incubated at 30° C. for 3 hours after kinase additions (0, 0.05, 0.1, 0.2, 0.5 U/μl), and then MRI images were taken using a 4.7 T Bruker magnet (7 cm bore) using T2-mapping Carr-Purcell-Meiboom-Gill (CPMG) pulse sequence. To reverse assembly, 4 U/μl YOP phosphatase or 0.1 mM free pY-peptide was added to an assembled TSAC solution containing 0.2 U/μl Abl kinase. The MRI image was taken after 10 minutes at room temperature.

[2] = molecular target: Crk SH2 (Homo sapiens, UniProt P46108); conditions: free peptide; cited from earlier work
[3] = molecular target: T1, Crk SH2 domain (Homo sapiens, UniProt P46108); experiment: SH2-binding peptide-mediated TSAC assembly, dynamic light scattering
T1 construct: The Crk SH2 domain was genetically modified to contain an N-terminal cysteine; GST (N, cleaved yes); made in house; host or cells: E. coli BL21-Gold(DE3)
T1 sequence (P46108 13-118 limits assumed): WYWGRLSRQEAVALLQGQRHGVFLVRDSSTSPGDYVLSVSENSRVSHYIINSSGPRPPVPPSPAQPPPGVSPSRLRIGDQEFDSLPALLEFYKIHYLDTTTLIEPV

Chain of Abl kinase (P00521 128-379): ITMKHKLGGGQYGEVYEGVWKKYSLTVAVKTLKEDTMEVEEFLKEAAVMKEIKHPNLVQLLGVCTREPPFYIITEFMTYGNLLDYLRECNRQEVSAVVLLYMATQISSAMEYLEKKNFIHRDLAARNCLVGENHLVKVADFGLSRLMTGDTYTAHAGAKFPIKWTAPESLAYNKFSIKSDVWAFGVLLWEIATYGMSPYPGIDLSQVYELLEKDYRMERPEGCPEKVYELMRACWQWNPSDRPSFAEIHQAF
Chain of Crk SH2 (P46108 13-118 limits assumed): as the sequence (P46108 13-118 limits assumed) above

| Substance | effect of free substrate on kinase-directed T2 enhancement [1] | binding affinity to Crk SH2 [2] | reversal of pY TSAC / SH2 TSAC assembly by added free peptide ([3]; 200 μM free peptide added after 10 minute incubation) | effect of free peptide on pY TSAC / SH2 TSAC assembly ([3]; 200 μM free peptide present) |
| --- | --- | --- | --- | --- |
| TAMRA-(Ahx)SRVGEEEHVpYSFPNKQKSAEC-CONH2 [free pY-Abl substrate] | lost |  |  |  |
| TAMRA-C(Ahx)QpYDHPNI-CONH2 ({TAMRA}-C[Ahx]Q[pY]DHPNI-NH2; not fully specified) [free pY peptide] |  | low μM | rapidly disassembled | inhibited |
